Paper PMC11199599, “SNM1A is crucial for efficient repair of complex DNA breaks in human cells” (Nature Communications, 2024)
Each block holds one binder with its values, some of them ahead of it.

Experiments:
[1] = target: T1, Lysine 164 monoubiquitinated human PCNA (PCNA^ub) (human | , UniProt P12004 1-261; P0CG48 1-76, monoubiquitinated at lysine 164 | C-terminus joined to lysine 164 of PCNA); assay: pull-down; GST-SNM1A peptides held on glutathione-agarose beads, washed with PBS with 250 mM to 1 M salt; 150 ng purified PCNA or PCNA^ub added, tumbled at 4 °C for 1 h, washed as before; immunoblot for PCNA, PCNA^ub, GST; details: both partners purified
T1 construct: PCNA (proliferating cell nuclear antigen), human, carrying one ubiquitin on lysine 164; ubiquitin, conjugated in vitro to lysine 164 of PCNA; also called ubiquitinated PCNA; lysine-164 monoubiquitinated PCNA

[2] = target: T2, Human PCNA (human, UniProt P12004 1-261); assay: as above; details: both partners purified
T2 construct: PCNA (proliferating cell nuclear antigen), human; also called native PCNA; purified PCNA; source: E. coli BL21, purified (IMAC, gel filtration on Superdex 200)
T2 sequence (P12004 whole entry): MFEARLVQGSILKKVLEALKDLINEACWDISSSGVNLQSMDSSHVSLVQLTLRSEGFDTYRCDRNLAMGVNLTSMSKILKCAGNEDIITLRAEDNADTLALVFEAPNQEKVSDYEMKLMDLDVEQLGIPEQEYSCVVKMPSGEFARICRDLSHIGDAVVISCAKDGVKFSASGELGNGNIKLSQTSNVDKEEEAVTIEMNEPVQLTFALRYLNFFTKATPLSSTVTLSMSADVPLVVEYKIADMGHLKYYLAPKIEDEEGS

binding result [1]: binds
B1: GST-tagged SNM1A peptide spanning the PBZ and UBZ motifs (GST-PBZ-UBZ) (domain or fragment, human)
chain: RPVYDGYCPNCQMPFSSLIGQTPRWHVFECLDSPPRSETECPDGLLCTSTIPFHYKRYTHFLLAQSRAG
notes: SNM1A (DCLRE1A), human, stretch spanning the UBZ and PBZ motifs; numbering as for NP_001258745.1; Cloned into pET-41b; also called UBZ/PBZ peptide; PBZ-plus-UBZ; not shown: GST, N-terminal, kept

binding result [2]: binds
binding result [1]: binds
B2: GST-tagged SNM1A PIP box peptide (GST-PIP) (domain or fragment, human)
chain: ARHPSTKVMKQMDIGVYFGLPPKRKEEKLL
notes: SNM1A (DCLRE1A), human, stretch spanning the PIP box; numbering as for NP_001258745.1; Cloned into pET-41b (MfeI/SalI); also called wildtype PIP box peptide; not shown: GST, N-terminal, kept
